Test results reported in patent US20030148956A1 (PROCTER AND GAMBLE, published 2003).
Where a chain is given by its changes, count along the chain named. Ends that are not written are not given here.

T1: CRF2R
T1 sequence (Q13324 whole entry, species assumed, looked up): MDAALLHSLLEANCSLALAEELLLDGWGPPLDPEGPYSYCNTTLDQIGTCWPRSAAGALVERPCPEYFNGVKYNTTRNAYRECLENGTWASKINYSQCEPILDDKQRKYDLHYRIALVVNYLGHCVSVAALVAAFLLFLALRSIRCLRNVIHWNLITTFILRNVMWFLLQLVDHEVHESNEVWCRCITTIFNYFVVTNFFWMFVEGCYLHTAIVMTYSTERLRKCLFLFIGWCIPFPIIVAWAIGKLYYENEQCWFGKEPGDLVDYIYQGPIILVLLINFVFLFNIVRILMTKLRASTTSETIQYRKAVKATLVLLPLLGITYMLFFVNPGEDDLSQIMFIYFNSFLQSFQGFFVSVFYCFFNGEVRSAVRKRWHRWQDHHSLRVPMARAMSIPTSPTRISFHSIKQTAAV

B1: SEQ ID NO 159 (peptide)
peptide: IVLSLDVPIGLLQILLEQTKADQLAQQAHSNRKLLDIA-NH2
B2: SEQ ID NO 160 (peptide)
peptide: IVLSLDVPIGLLQTLLELARTQSQRERAEQNRIIFDSV-NH2
B3: SEQ ID NO 161 (peptide)
peptide: SEEPPISLDLTFHLLREVLEMARAEQLAQQAHTNARILARV-NH2
B4: SEQ ID NO 162 (peptide)
peptide: SEEPPISLDVPIGLLQEVLEMARAEQLAQQAHSNRKLMEII-NH2
B5: SEQ ID NO 163 (peptide)
peptide: IVLSLDVPIGLLQILLEQARARAAREQATSNRKLMEII-NH2
B6: SEQ ID NO 164 (peptide)
peptide: IVLSLDVPIGLLQILLEMARAEQLAQQAHSNRKLMEII-NH2
B7: SEQ ID NO 165 (peptide)
peptide: IVLSLDVPIGLLQEVLEMARAEQLAQQAHSNRKLMEII-NH2
B8: SEQ ID NO 166 (peptide)
peptide: IVLSLDVPIGLLQILIEIEKQEKEKQQAANNARILARV-NH2
B9: SEQ ID NO 167 (peptide)
peptide: IVLSLDVPIGLLQILLEQEKQEKEKQQATTNARILARV-NH2
B10: SEQ ID NO 17 (peptide)
peptide: ZGPPISIDLPFQLLRKMIEIEKQEKEKQQATTNRLLLATV
modifications: C-terminal amide
B11: SEQ ID NO 168 (peptide)
peptide: IVLSLDVPIGLLQILIEIEKQEKEKQQAATTNARILARV-NH2
B12: SEQ ID NO 169 (peptide)
peptide: ZGPPISIDVPTYLLRILIEIEKQEKEKQQATTNARILARV
modifications: C-terminal amide
B13: SEQ ID NO 170 (peptide)
peptide: B12 peptide with I16K, L17M
modifications: C-terminal amide
B14: SEQ ID NO 171 (peptide)
peptide: B12 peptide with T11F, Y12Q
modifications: C-terminal amide
B15: SEQ ID NO 172 (peptide)
peptide: B12 peptide with T11F, Y12Q, I16K, L17M
modifications: C-terminal amide
B16: SEQ ID NO 173 (peptide)
peptide: DNPSLSIDLPTYLLRTLLELARTQSQRERAEQNAIIFASV-NH2
B17: SEQ ID NO 174 (peptide)
peptide: DNPSLSIDLPLLLLRTLLELARTQSQRERAEQNAIIFASV-NH2
B18: SEQ ID NO 175 (peptide)
peptide: DNPSLSIDLPLILLRTLLELARTQSQRERAEQNAIIFASV-NH2
B19: SEQ ID NO 176 (peptide)
peptide: DNPSLSIDLPLQLLRTLLELARTQSQRERAEQNAIIFASV-NH2
B20: SEQ ID NO 177 (peptide)
peptide: DNPSLSIDLPLYLLRTLLELARTQSQRERAEQNAIIFASV-NH2
B21: SEQ ID NO 18 (peptide)
peptide: B10 peptide with A38D, T39R
modifications: C-terminal amide
B22: SEQ ID NO 178 (peptide)
peptide: DNPSLSIDLPLFLLRTLLELARTQSQRERAEQNAIIFASV-NH2
B23: SEQ ID NO 179 (peptide)
peptide: DNPSLSIDLPLHLLRTLLELARTQSQRERAEQNAIIFASV-NH2
B24: SEQ ID NO 180 (peptide)
peptide: DNPSLSIDLPFLLLRTLLELARTQSQRERAEQNAIIFASV-NH2
B25: SEQ ID NO 181 (peptide)
peptide: DNPSLSIDLPFILLRTLLELARTQSQRERAEQNAIIFASV-NH2
B26: SEQ ID NO 182 (peptide)
peptide: DNPSLSIDLPFQLLRTLLELARTQSQRERAEQNAIIFASV-NH2
B27: SEQ ID NO 183 (peptide)
peptide: DNPSLSIDLPFYLLRTLLELARTQSQRERAEQNAIIFASV-NH2
B28: SEQ ID NO 184 (peptide)
peptide: DNPSLSIDLPFFLLRTLLELARTQSQRERAEQNAIIFASV-NH2
B29: SEQ ID NO 185 (peptide)
peptide: DNPSLSIDLPFHLLRTLLELARTQSQRERAEQNAIIFASV-NH2
B30: SEQ ID NO 186 (peptide)
peptide: ZGPPISIDLPHWLLRKMIEIEKQEKEKQQAANNRLLLDTI
modifications: C-terminal amide
B31: SEQ ID NO 187 (peptide)
peptide: B30 peptide with H11W, W12F
modifications: C-terminal amide
B32: SEQ ID NO 19 (peptide)
peptide: B10 peptide with T39R
modifications: C-terminal amide
B33: SEQ ID NO 188 (peptide)
peptide: B30 peptide with H11L, W12L
modifications: C-terminal amide
B34: SEQ ID NO 189 (peptide)
peptide: B30 peptide with H11F, W12I
modifications: C-terminal amide
B35: SEQ ID NO 190 (peptide)
peptide: B30 peptide with H11F, W12V
modifications: C-terminal amide
B36: SEQ ID NO 191 (peptide)
peptide: B30 peptide with H11F, W12L
modifications: C-terminal amide
B37: SEQ ID NO 192 (peptide)
peptide: B30 peptide with H11I
modifications: C-terminal amide

biological target: CRF1R; test: cell-based or functional assay

CRF1R EC50 | CRF1R Emax | Binder
> 100 nM | 9% | B1
> 100 nM | 10% | B2
> 100 nM | 77% | B3
> 100 nM | 11% | B4
> 100 nM | 13% | B5
> 100 nM | 26% | B6
> 100 nM | 19% | B7
438 nM | 95% | B8
1000 nM | 15% | B9
260 nM | 98% | B10
1000 nM | 52% | B11
978 nM | 26% | B12
1000 nM | 9% | B13
206 nM | 99% | B14
1000 nM | 68% | B15
1000 nM | 6.05% | B16
1000 nM | 29.1% | B17
1000 nM | 34.8% | B18
1000 nM | 26.9% | B19

CRF1R EC50 | CRF1R Emax | Binder
613 nM | 69.2% | B20
106 nM | 100% | B21
1000 nM | 55.7% | B22
477 nM | 78.9% | B23
125 nM | 99.3% | B24
154 nM | 100% | B25
409 nM | 89.7% | B26
415 nM | 57.5% | B27
486 nM | 77.3% | B28
358 nM | 95.8% | B29
323 nM | 100% | B30
31.6 nM | 72% | B31
232 nM | 83% | B32
162 nM | 96% | B33
62.2 nM | 57% | B34
> 100 nM | 9% | B35
63.7 nM | 65% | B36
562 nM | 99% | B37

biological target: T1, CRF2R; test: cell-based or functional assay

CRF2R EC50 | CRF2R Emax | Binder
90.8 nM | 62% | B1
9.15 nM | 87% | B2
> 100 nM | 88% | B3
> 100 nM | 7% | B4
4.49 nM | 96% | B5
2.24 nM | 92% | B6
> 100 nM | 75% | B7
3.7 nM | 99% | B8
13 nM | 100% | B9
10.2 nM | 96% | B10
4.9 nM | 75% | B11
17.8 nM | 93% | B12
75 nM | 83% | B13
17.6 nM | 100% | B14
13.5 nM | 100% | B15
100 nM | 65.2% | B16
4.42 nM | 97.2% | B17
5.42 nM | 92.2% | B18
12.6 nM | 90.2% | B19

CRF2R EC50 | CRF2R Emax | Binder
5.63 nM | 97.7% | B20
5.29 nM | 97% | B21
5.17 nM | 96.5% | B22
10.2 nM | 92.5% | B23
3.14 nM | 95.7% | B24
5.22 nM | 97.8% | B25
7.21 nM | 91.4% | B26
7.93 nM | 100% | B27
3.72 nM | 96.5% | B28
8.98 nM | 100% | B29
25.1 nM | 100% | B30
10.3 nM | 100% | B31
7.42 nM | 75% | B32
14.6 nM | 100% | B33
7 nM | 96% | B34
39.6 nM | 31% | B35
8.3 nM | 100% | B36
66.8 nM | 97% | B37
